One test has as its system Farage cells. Type of test: in vivo. To be noted: single agent, SEA-CD70 3 mg/kg or SGN-35 1 mg/kg.
Another test has as its target T1, human FcγRIIIa (Homo sapiens, UniProt P08637).
T1 construct: expressed in transfected cells; host or cells: CHO cells
The test is described as follows: FcγR binding by flow cytometry on transfected CHO cells. Particulars: FIG. 11B-D. The method, then: (§1) CHO cells were incubated with increasing concentrations of antibodies and a secondary antibody used to assess binding as monitored by flow cytometry.
(§2) For each cell line, 50 million cells were washed once in 50 mL of PBS. Cells were counted again and resuspended at 2.2 million cells/mL in BD stain buffer. Cells were plated in a 96-well round bottom plate at 0.1 mL of cells per well.
(§3) Antibody solutions were diluted to make the following final concentrations: 3 mg/mL, 1 mg/mL, 0.3 mg/mL, 0.1 mg/mL, 0.03 mg/mL, 0.01 mg/mL, 0.003 mg/mL, 0.001 mg/mL, 0.0003 mg/mL. Each antibody solution was diluted at 10×(i.e., […] of media) to produce the following concentrations: 300, 100, 30, 10, 3, 1, […] μg/ml. Media was removed from the cells and the cells were washed with media. 100 μL of antibody solution was added to each well. Antibody solutions were added with decreasing concentrations in the vertical direction. […]
(§4) Next, PE conjugated anti-human IgG Fc antibody was prepared (1/50 dilution of 1 mg/ml concentration=[…] saturating concentration) in BD stain buffer. […] Cells were resuspended in PBS+1% paraformaldehyde and kept at 4° C. until they were analyzed by flow cytometry. Samples were analyzed using the Attune flow cytometer. […]
A general note: Flow cytometry measures light scatter and fluorescence of single cells or particles in a stream.

A further test deals with T2, human FcγRIIb (Homo sapiens, UniProt P31994).
T2 construct: expressed in transfected cells; host or cells: CHO cells
T2 sequence (P31994 43-310): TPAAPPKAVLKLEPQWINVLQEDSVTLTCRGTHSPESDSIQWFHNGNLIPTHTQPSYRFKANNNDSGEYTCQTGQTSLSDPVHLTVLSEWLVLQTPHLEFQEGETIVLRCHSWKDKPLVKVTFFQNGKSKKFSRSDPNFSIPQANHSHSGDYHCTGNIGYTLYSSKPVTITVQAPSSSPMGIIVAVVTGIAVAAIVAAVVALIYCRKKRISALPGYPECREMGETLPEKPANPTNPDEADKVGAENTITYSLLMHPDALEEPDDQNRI
The description is as above. Particulars: FIG. 11B-D. The method, then: as §1, §2, §3, §4

Another test deals with MM1S MM cells. As to the kind of experiment: Disseminated MM xenograft survival model (MM1S). Type of test: in vivo, SCID animals. Particulars: 0.1 mg/kg SEA-BCMA weekly x5 IP and/or 0.01 mg/kg SGN-CD48A once IP; N=8/group; FIG. 21A. The method, then: MM1S MM cells were injected IV into SCID animals, which contain active innate immune effector cells to mediate ADCP and ADCC. Seven days post implant, dosing was initiated with 0.1 mg/kg SEA-BCMA and/or 0.01 mg/kg SGN-CD48A, and animals were monitored for survival. SEA-BCMA was dosed weekly for 5 weeks IP and SGN-CD48A was dosed once IP. Animals were followed for 160 days for survival (N=8/group). By day 51, all untreated animals had been humanely euthanized according to IACUC protocols.

T1 sequence (P08637 17-254): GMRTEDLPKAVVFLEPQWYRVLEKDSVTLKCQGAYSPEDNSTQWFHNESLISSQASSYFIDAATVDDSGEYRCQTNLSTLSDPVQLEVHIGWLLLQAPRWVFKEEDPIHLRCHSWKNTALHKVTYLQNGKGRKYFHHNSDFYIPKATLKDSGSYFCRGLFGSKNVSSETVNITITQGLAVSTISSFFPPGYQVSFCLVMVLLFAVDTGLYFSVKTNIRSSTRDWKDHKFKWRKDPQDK

B1: SEA-CD70: nonfucosylated antibody targeting the CD70 antigen; VH and VL of SEQ ID NOs: 41 and 42 (antibody, V domains shown)
VH: QVQLVQSGAEVKKPGASVKVSCKASGYTFTNYGMNWVRQAPGQGLKWMGWINTYTGEPTYADAFKGRVTMTRDTSISTAYMELSRLRSDDTAVYYCARDYGDYGMDYWGQGTTVTVSS
VL: DIVMTQSPDSLAVSLGERATINCRASKSVSTSGYSFMHWYQQKPGQPPKLLIYLASNLESGVPDRFSGSGSGTDFTLTISSLQAEDVAVYYCQHSREVPWTFGQGTKVEIK
modifications: nonfucosylated; SEA-CD70 heavy chain variable region; SGN-CD70 light chain variable region
With B1, in the test on Farage cells (day post implant, untreated 28.5), the “day at which tumors reached an average 5 fold increase of original size” value is on record as 34.5 days. In addition, the “days post treatment at which tumors reached an average 5 fold increase” value in the test on Farage cells (untreated 9.5) is given as 15.5 days post treatment.

B2: SEA-CD40: nonfucosylated, humanized version of murine S2C6 anti-CD40; VH and VL of SEQ ID NOs: 28 and 29 (antibody, V domains shown)
VH: EVQLVESGGGLVQPGGSLRLSCAASGYSFTGYYIHWVRQAPGKGLEWVARVIPNAGGTSYNQKFKGRFTLSVDNSKNTAYLQMNSLRAEDTAVYYCAREGIYWWGQGTLVTVSS
VL: DIQMTQSPSSLSASVGDRVTITCRSSQSLVHSNGNTFLHWYQQKPGKAPKLLIYTVSNRFSGVPSRFSGSGSGTDFTLTISSLQPEDFATYFCSQTTHVPWTFGQGTKVEIK
modifications: nonfucosylated; VH of SEA-CD40; VL of SEA-CD40
Consider B2, for which the “affinity for FcγRIIIa (rank among CD40 antibodies tested)” value in the test with human FcγRIIIa is listed as “highest affinity”. In addition, the “affinity for FcγRIIb (rank among CD40 antibodies tested)” value with human FcγRIIb is “lowest affinity”.

B3: SEA-BCMA: nonfucosylated antibody targeting B-cell maturation antigen (BCMA); VH and VL of SEQ ID NOs: 45 and 46 (antibody, V domains shown)
VH: QVQLVQSGAEVKKPGASVKLSCKASGYTFTDYYIHWVRQAPGQGLEWIGYINPNSGYTNYAQKFQGRATMTADKSINTAYVELSRLRSDDTAVYFCTRYMWERVTGFFDFWGQGTMVTVSS
VL: DIQMTQSPSSVSASVGDRVTITCLASEDISDDLAWYQQKPGKAPKVLVYTTSSLQSGVPSRFSGSGSGTDFTLTISSLQPEDFATYFCQQTYKFPPTFGGGTKVEIK
modifications: nonfucosylated; SGN-BCMA heavy chain variable region; SGN-BCMA light chain variable region
For the molecule B3, the “animals alive by day 160” value in the test on MM1S MM cells is given as “zero”.

The record behind these values is patent US20230270877A1, “Combination Therapy” (Seagen Inc., priority 2020, published 2023).
